From patent publication US20250263481A1 (SHIJIAZHUANG YILING PHARMACEUTICAL, published 2025)
Positions count from the first letter of the chain named.

B1: YL-G1-19-04 (antibody, human IgG1, kappa)
heavy: not shown
light: DIVMTQSPSSLTVTAGEKVTLSCKSSQSLLNSGNQKNYLTWYQQRPGQPPKLLIYWASTRESGVPVRFTGSGSGADFTLTISSVQAEDLAVYFCQNAYFYPLTFGTGTKLELRRTVAAPSVFIFPPSDEQLKSGTASVVCLLNNFYPREAKVQWKVDNALQSGNSQESVTEQDSKDSTYSLSSTLTLSKADYEKHKVYACEVTHQGLSSPVTKSFNRGEC
notes: Mouse/human chimeric IgG1 kappa, first generation
B2: YL-G1-19-02 (antibody, human IgG1, kappa)
heavy: not shown
light: B1 light with L21M, A75T, F93Y, F99I, R113K
notes: Mouse/human chimeric IgG1 kappa, first generation; also called YL-G1-02
B3: YL-G1-19-03 (antibody, human IgG1, kappa)
heavy: not shown
light: B1 light with L21M, R45K, V66D, A75T, V91I, F93Y, A97N, T106A, K109R, R113K
notes: as for B1
B4: YL-G1-19-01 (antibody, human IgG1, kappa, V domains shown)
VH: QVQLQQSGAELVRPGTSVKVSCKASGYAFTNYLIEWVKQRPGQGLEWIGVINPGSGGTNYNEKFKGKATLTADKSSNTAYMQLSSLTSEDSAVYFCARVYYGNSFGYWGQGTLVTVSA
VL: DIVMTQSPSSLTVTAGEKVTMSCKSSQSLLNSGNQKNYLTWYQQKPGQPPKLLIYWASTRESGVPDRFTGSGSGTDFTLTISSVQAEDLAVYYCQNEYFYPFTFGSGTKLEIKR
notes: also called chimeric antibody with the variable region of one of the mouse mAbs
B5: YL-G2-D (antibody, human IgG1, kappa)
heavy: QLQQSGPELEKPGASVKISCKASGYSFTGYKMNWVKQSNGESLEWIGNIDPYYGDTTYTQKFKGKATFTVDTSSSTAYMQLKSLTSEDSAVYFCARYNRGNTMDYWGQGTSVTVSSASTKGPSVFPLAPSSKSTSGGTAALGCLVKDYFPEPVTVSWNSGALTSGVHTFPAVLQSSGLYSLSSVVTVPSSSLGTQTYICNVNHKPSNTKVDKRVEPKSCDKTHTCPPCPAPELVGGPSVFLLPPKPKDTLMISRTPEVTCVVVDVSHEDPEVKFNWYVDGVEVHNAKTKPPEEQYNSTLRVVSVLTVLHQDWLNGKEYKCKVSNKALPAPIEKTISKAKGQPREPQVYTLPPSREEMTKNQVSLTCLVKGFYPSDIAVEWESNGQPENNYKTTPLVLDSDGSFFLYSKLTVDKSRWQQGNVFSCSVMHEALHNHYTQKSLSLSPGK
light: B1 light
notes: Second generation, Fc-engineered form of YL-G1-19-04
B6: YL-G2-B (antibody, human IgG1, kappa)
heavy: EVQLQQSGPELEKPGASVKISCKASGYSFTGYKMNWVKQSNGKSLEWIGNIDPYYGGTTYNQKFKGKATLTVDKSSSTAYMQLKSLTSEDSAVYYCARYGKGNTMDYWGQGTSVTVSSASTKGPSVFPLAPSSKSTSGGTAALGCLVKDYFPEPVTVSWNSGALTSGVHTFPAVLQSSGLYSLSSVVTVPSSSLGTQTYICNVNHKPSNTKVDKRVEPKSCDKTHTCPPCPAPELVGGPSVFLLPPKPKDTLMISRTPEVTCVVVDVSHEDPEVKFNWYVDGVEVHNAKTKPPEEQYNSTLRVVSVLTVLHQDWLNGKEYKCKVSNKALPAPIEKTISKAKGQPREPQVYTLPPSREEMTKNQVSLTCLVKGFYPSDIAVEWESNGQPENNYKTTPLVLDSDGSFFLYSKLTVDKSRWQQGNVFSCSVMHEALHNHYTQKSLSLSPGK
light: B1 light with L21M, A75T, F93Y, F99I, R113K
notes: also called YL-G2-B batch 1; YL-G2-B batch 2
B7: YL-G2-C (antibody, human IgG1, kappa)
heavy: QIQLVQSGPELRKPGETVKISCKASGFPFTTDGMSWVKQAPGKGLKWMGWINTYSGVPTYADDFKGRVAFSLETSASTAYLQIKNLKNEDTATYFCARFRRGNALDNWGQGTSVTVSSASTKGPSVFPLAPSSKSTSGGTAALGCLVKDYFPEPVTVSWNSGALTSGVHTFPAVLQSSGLYSLSSVVTVPSSSLGTQTYICNVNHKPSNTKVDKRVEPKSCDKTHTCPPCPAPELVGGPSVFLLPPKPKDTLMISRTPEVTCVVVDVSHEDPEVKFNWYVDGVEVHNAKTKPPEEQYNSTLRVVSVLTVLHQDWLNGKEYKCKVSNKALPAPIEKTISKAKGQPREPQVYTLPPSREEMTKNQVSLTCLVKGFYPSDIAVEWESNGQPENNYKTTPLVLDSDGSFFLYSKLTVDKSRWQQGNVFSCSVMHEALHNHYTQKSLSLSPGK
light: B1 light with L21M, R45K, V66D, A75T, V91I, F93Y, A97N, T106A, K109R, R113K
notes: Second generation, Fc-engineered

What follows are binders tested against T1, human CLDN18.1 expressed on cells (human, UniProt P56856 1-261) (assay: flow cytometry (geometric mean, Alexa Fluor 647 anti-human IgG Fc secondary) on CLDN18.1-expressing 293T cells).
T1 construct: also called huCLDN18.1; CLDN18.1-expressing 293T cells
T1 sequence (P56856 whole entry): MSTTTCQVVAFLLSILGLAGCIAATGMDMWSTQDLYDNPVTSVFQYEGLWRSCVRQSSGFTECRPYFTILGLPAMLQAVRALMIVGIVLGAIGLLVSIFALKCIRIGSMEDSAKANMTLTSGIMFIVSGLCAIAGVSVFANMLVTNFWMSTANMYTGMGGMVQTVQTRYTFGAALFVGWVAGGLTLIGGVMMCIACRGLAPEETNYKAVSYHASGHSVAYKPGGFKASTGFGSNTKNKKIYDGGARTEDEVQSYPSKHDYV
Experimental: (§1) CLDN18.2-expressing 293T cells and CLDN18.1-expressing 293T cells at a density of 2×10⁶ cells/ml in FACS buffer ([…]) were mixed with a dilution series ([…] in FACS buffer) of the chimeric antibodies, the reference antibody, or a IgG negative control (50 μL) in a 96-well V-bottom plate and incubated for 30 min on ice. After a wash with 200 μL/well FACS buffer, cells were resuspended in 30 μL/well secondary antibody Alexa Fluor® 647 AffiniPure Goat Anti-Human IgG, […] specific (Jackson, Cat. #109-605-098) and incubated for 20 min on ice. After three washes with 200 μL/well FACS buffer, cells were resuspended with 150 μl/well FACS buffer and subjected to FACS using BD LSR II Flow Cytometer (HTS). Geometric mean was used for data analysis and plots were made using Prism GraphPad.

Binder | binding result
B1 | no binding (tested: about 30 ug/ml)
B2 | no binding (tested: about 30 ug/ml)
B3 | no binding (tested: about 30 ug/ml)
B4 | no binding (tested: about 30 ug/ml)

The binders below were run against human CLDN18.2 expressed on cells (human) (assay: cell-based or functional assay).

Binder | ADCC on KATOIII CLDN18.2 cells, LDH: EC50 [nM] | ADCC on KATOIII CLDN18.2 cells, LDH: max (% cytotoxity) [%] | ADCC on KATOIII CLDN18.2 cells, LDH: EC50 (batch 1) [nM] | ADCC on KATOIII CLDN18.2 cells, LDH: EC50 (batch 2) [nM]
B1 | 0.14 | 15.4 |  | 
B5 | 0.021 | 18.4 |  | 
B2 | 0.16 | 19.9 |  | 
B6 |  |  | 0.028 | 0.018
B3 | 0.21 | 16.7 |  | 
B7 | 0.019 | 17.6 |  | 

These binders were tested against T2, human CLDN18.2 expressed on cells (human) (assay: KinExA 4000, antibody constant, CHO cells over-expressing huCLDN18.2 titrated).
T2 construct: also called huCLDN18.2; CLDN18.2-expressing 293T cells
Experimental: A KinExA 4000 instrument was also used to measure binding affinity of the antibodies to surface protein of intact cells, i.e., CHO cells over-expressing huCLDN18.2. Concentration of the antibodies was held constant (CBP) and concentration of whole cells with surface protein were varied (titrant). Concentration of whole cells with surface proteins were diluted three-fold. Titrated cells were incubated with the constant binding partner (CBP). Once equilibrium was reached, the samples were centrifuged, the supernatants were recovered, and the free CBP was detected with a fluorescently labeled anti-CBP molecule.
To establish a more accurate Kd, two equilibrium curves were prepared and analyzed. One curve with low concentration of CBP at 100 pM (200 pM binding sites) and 10⁶ cells/mL with three-fold dilutions, and one curve with high concentration of CBP at 10 nM (20 nM binding sites) and 10⁶ cells/mL with three-fold dilutions. The KinExA 4000 measured the amount of unbound CBP in solution. Analysis was performed using Sapidyne Instruments n-Curve Analysis Software version 4.4.26.

Binder | Kd [nM]
B5 | 0.0131
B6 | 0.0094
B7 | 0.0386

The binders below were run against T2, human CLDN18.2 expressed on cells (assay: cell-based or functional assay).

Binder | CDC on CT26 CLDN18.2 cells, LDH: EC50 [nM] | CDC on CT26 CLDN18.2 cells, LDH: max (% cytotoxity) [%] | CDC on CT26 CLDN18.2 cells, LDH: EC50 (batch 1) [nM] | CDC on CT26 CLDN18.2 cells, LDH: EC50 (batch 2) [nM]
B1 | 0.19 | 59.2 |  | 
B5 | 0.12 | 71.8 |  | 
B2 | 0.26 | 73.4 |  | 
B6 |  |  | 0.14 | 0.12
B3 | 0.24 | 62.2 |  | 
B7 | 0.1 | 65.2 |  | 

Biological target: T2, human CLDN18.2 expressed on cells
Experiment: cell-based or functional assay
Remark: another data set of the same source

Binder | ADCC, FACS: EC50 [nM] | ADCC, LDH: EC50 [nM]
B2 | ~0.224 | 0.3
B6 | 0.0073 | 0.012

These binders were tested against T2, human CLDN18.2 expressed on cells (assay: flow cytometry (geometric mean, Alexa Fluor 647 anti-human IgG Fc secondary) on CLDN18.2-expressing 293T cells).
Experimental: as §1

Binder | EC50 (read off the curve) [mg/L]
B1 | ~0.7
B2 | ~0.7
B3 | ~0.6
B4 | ~1

Biological target: T2, human CLDN18.2 expressed on cells
Experiment: cell-based or functional assay
Remark: another data set of the same source

Binder | ADCC on NCI-N87 CLDN18.2 cells, LDH: EC50 [nM] | ADCC on NCI-N87 CLDN18.2 cells, LDH: max (% cytotoxity) [%] | ADCC on NCI-N87 CLDN18.2 cells, LDH: EC50 (batch 1) [nM] | ADCC on NCI-N87 CLDN18.2 cells, LDH: EC50 (batch 2) [nM]
B1 | 0.067 | 12.6 |  | 
B5 | 0.0089 | 18.6 |  | 
B2 | 0.072 | 16.8 |  | 
B6 |  |  | 0.0067 | 0.012
B3 | 0.13 | 15.2 |  | 
B7 | 0.0078 | 14.9 |  | 

Biological target: T2, human CLDN18.2 expressed on cells
Experiment: cell-based or functional assay
Remark: another data set of the same source

Binder | CDC on KATOIII CLDN18.2 cells, LDH: EC50 [nM] | CDC on KATOIII CLDN18.2 cells, LDH: max (% cytotoxity) [%] | CDC on KATOIII CLDN18.2 cells, LDH: EC50 (batch 1) [nM] | CDC on KATOIII CLDN18.2 cells, LDH: EC50 (batch 2) [nM]
B1 | 4.76 | 48.3 |  | 
B5 | 2.4 | 49.2 |  | 
B2 | 1.95 | 35.4 |  | 
B6 |  |  | 1.24 | 1.33
B3 | ~4.98 | 67 |  | 
B7 | ~6.04 | 74.6 |  | 

Each binder was assayed against T2, human CLDN18.2 expressed on cells (assay: flow cytometry (percent FITC-positive cells, GAH-FITC secondary) on CHO cells expressing huCLDN18.2).
Experimental: CHO cells expressing huCLDN18.2 were used to assess the binding of the antibodies. Cells were seeded at 5×10⁵ cells per 100 μl into a well of a 96-well plate for each sample. Then, 100 μl of each serially diluted antibody was added to the cells, each dilution started at 40 µg/ml and was diluted 5-fold. Therefore, the final concentration of each antibody starts at 20 µg/ml followed by a 5-fold serial dilution. After 1 hour, the cells were washed twice and 100 μl of GAH-FITC (1:200 dilution) was added to each well. After 30 minutes, the cells were washed twice and resuspended in 120 μl of FACS buffer. The cells were analyzed via flow cytometry.
Unstained cells were used as a reference to set up overall target cell gating and to establish the FITC-negative populations, allowing us to establish the FITC-positive cell gate for each cell line. Additionally, the mean fluorescence intensity (MFI) of the entire population of cells was calculated to secondarily validate the FITC-positive results. The ratio of the gated positive cell number to the total live cell number is taken as the percentage of positive cells.

Binder | EC50 (read off the curve) [mg/L]
B5 | ~0.0003
B6 | ~0.0006
B7 | ~0.0006
